This note sets out measurements from patent US20200188539A1.

For this assay, the target named is prostate specific membrane antigen (human (human prostate LNCaP cells)) (UniProt Q04609). Kind of assay: cell-based or functional assay.
Chain of prostate specific membrane antigen (human (human prostate LNCaP cells)) (Q04609 whole entry): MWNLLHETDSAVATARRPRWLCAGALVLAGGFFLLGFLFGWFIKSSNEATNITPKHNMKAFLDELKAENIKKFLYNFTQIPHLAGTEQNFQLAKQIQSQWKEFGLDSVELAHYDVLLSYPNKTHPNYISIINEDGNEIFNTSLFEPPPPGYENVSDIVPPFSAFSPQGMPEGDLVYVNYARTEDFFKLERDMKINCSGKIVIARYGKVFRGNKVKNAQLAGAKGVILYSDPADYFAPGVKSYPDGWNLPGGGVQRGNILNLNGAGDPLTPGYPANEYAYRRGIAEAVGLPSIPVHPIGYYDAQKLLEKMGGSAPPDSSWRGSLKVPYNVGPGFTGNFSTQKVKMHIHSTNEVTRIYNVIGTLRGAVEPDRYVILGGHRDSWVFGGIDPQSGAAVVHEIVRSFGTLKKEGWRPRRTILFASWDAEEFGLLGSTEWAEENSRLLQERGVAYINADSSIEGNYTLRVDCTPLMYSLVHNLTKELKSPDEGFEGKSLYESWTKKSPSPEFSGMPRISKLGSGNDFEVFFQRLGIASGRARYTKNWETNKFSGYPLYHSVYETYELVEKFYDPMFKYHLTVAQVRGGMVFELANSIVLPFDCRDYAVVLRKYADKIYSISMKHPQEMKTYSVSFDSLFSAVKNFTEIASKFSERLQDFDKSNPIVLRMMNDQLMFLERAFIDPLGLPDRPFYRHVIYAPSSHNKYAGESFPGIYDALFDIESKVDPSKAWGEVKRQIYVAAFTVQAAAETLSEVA

“[DUPA-6-Ahx-Lys(DOTA)-6-Ahx-RM2] (peptide)”: the IC50 (NAALADase assay in human prostate LNCaP cells, [N-acetyl aspartyl 3H-glutamate]) turned out to be 9.3 nM and the IC50 LNCaP cells (NAALADase assay, [N-acetyl aspartyl 3H-glutamate] substrate, LNCaP homogenized cell membranes) was determined as 10.5 nM.
